The record followed here is the DeepSol protein solubility set.

The data set in a line: soluble on expression in E. coli; label from the status in PepcDB or PDB records.
“MQPIEFLEGGCLCGAIRYRIEGNPFDADYCHCRMCQKSIGAAFGAWMDFNVSQVTWLKGNVTEFASSDFVRRGFCAQCGCSLTYRHTEYPDYLTLTIASFDDPNLVQPNYHIYTEQQLSWLKIEDNCQRYPQARTK”: the “soluble on expression in E. coli” value is “soluble”.

Regarding “MKVTITANAPLSAGAMAVKKEAENANVFAALLAHKQQELLPAGAETSLFQEESSKNKEPDWQNGGMETGAAGQPSSAEKKPAQIESLWLAPSIMTALAVAPISAAAGAPLLEADQQAEGKTSDHWTFPFVGAMNGEETIAAQPAADEAGFERAFITDGRKSGHIDAESGSPSSGKTGMFPPLLSDGDQRPFHEQGGNRTVVALPNEASPVRPAGEKDVSLPKRGDKGHGGEATPSFTTPPALLSPSSSSVGLVGEMPASAGGSVADQVAHALRSARWMKLPNGVMQLVIRLHPEHLGTVTVKMTEEGGKLAAKLLVANDAVKELLYAHLPQLAQQLDASSITVEKWTVWSDYDSPAMPPYSGNRQGGQQQGESRQKQKREPSSSFPFALDGIEADA”, the “soluble on expression in E. coli” value is given as “not soluble”.

For the sequence “SVGTTSVVKNSHEEVVQTLANSLFPAQFMNGNIHIPVAVQAVAGTYQNTAQTVHIWDPQQQPQQQTPQEQTPPPQQQQQQLQVTCSAQTVQVAEVEPQSQPQPSPELLLPNSLKPEEGLEVWKNWAQTKNAELEKDAQNRLAPIGRRQLLRFQEDLISSAVAELNYGLCLMTREARNGEGEPYDPDVLYYIFLCIQKYLFENGRVDDIFSDLYYVRFTEWLHEVLKDVQPRVTPLGYVLPSHVTEEMLWECKQLGAHSPSTLLTTLMFFNTKYFLLKTVDQHMKLAFSKVLRQTKKNPSNPKDKSTSIRYLKALGIHQTGQKVTDDMYAEQTENPENPLRCPIKLYDFYLFKCPQSVKGRNDTFYLTPEPVVAPNSPIWYSVQPISREQMGQMLTRILVIREIQEAIAVANASTMH”, the “soluble on expression in E. coli” value is “soluble”.

As to “MKEIELKLKGEINRLTNKTFKFDERVGEGWFSAVYFLKTREIIEEFRPKSVVTMQFFQKENAVLCGTDEVIALLQTFAKNPEELEINSLKDGDKISPFETVLTIDGPYENFGFLEGVIDGILARRTSVATNVYNVVQAARSVDKEKPVIFMGDRDDHYTQQAGDGYAAYIGGMSAQATHAMNEWWGKSGMGTMPHALIQMFNGDVVEAAKAYHKKFPEDELVVLIDYNNDVITDALRVAREFGSTLKGVRVDTSRTMIDQYFIRHPEVLGTFDPRGVNPSLVFALRKALDEEGFQHVDIVVTGGFDEKRIREFEAQNVPVDIYGVGSSLLKMNIGFTGDNVELNGKPEAKAGRKYRPNPRLERVQLEKREDM”, the “soluble on expression in E. coli” value is listed as “not soluble”.

Regarding “MCMPRYTQPKKTWFYPVNFKIKAVELSLRNDMLSKDVAQALDIHPLMLSRWRKEYREGKFKKNQHYQSNSELMSKIPTKKELNKIKQLQKENDRLKMENDLLKKWQRYLAEVHQSDLDSSKNTKKPLEHHHHHH”, the “soluble on expression in E. coli” value is recorded as “soluble”.

For “MGHHHHHHSHDNLSVPLMEEDLDGSSGVLFPFYDADTSMLYVVGKGDGNIRYYEVSADKPHLSYLTEYRSYNPQKGIGVMPKRGLDVSSCEIFRFYKLITTKSLIEPISMIVPRRSESYQEDIYPPTAGAQPSLTAQEWLSGMNRDPILVSLRPGSELLRPHPLPAERPIFNSMAPASPRLLNQTEKLAAEDGWRSS”, the “soluble on expression in E. coli” value was “not soluble”.

With “MTYPDLSRGAGPVAAGPQPTGLADLLERVLDKGLVIAGDIRVNLLDIELLTIKLRLVIASMETAQQAGIDWWTRDPWLKASESELLEENRRLREQLAQADTNGRKRIEGKESHD”, the “soluble on expression in E. coli” value is “not soluble”.

“MVSAGGVVLKGDPPEVLVVSLRGGRVVTLPKGQVEPGERYPETAVREVREETGVEASVLAPLGRVRYYFTVHEPEGPVTVSKEVHYFLMRHLGGTPRPQLTEVEDAFFLPASEALERLSYPNEREMLKRALLRLRARAKKG”: the “soluble on expression in E. coli” value is listed as “soluble”.

In the case of “MMMGEVQSLPSCGLHPRLLDALTLALAARPQEKAPGRYELQGDNVFMNVMQLTTQMPAEKKAELHEQYIDIQLLLTGVERIAFGMSGAARQCEEMHVEEDYQLCSQIVDEQTITLQAGMFAVFMPGEPHKPGCAVGEPDDIKKVVVKVRASLLAA”, the “soluble on expression in E. coli” value is on record as “not soluble”.

For “MLTSGETVNVVLDFTKCTSTDDQKKPGMMRGDLRISAFLIRPDNSISFSDEHFTITTMDKEPIYQFLRYSLKPDETASFTMTTLSMPEKAHKGEVIAYNCKFATALEHHHHHH”, the “soluble on expression in E. coli” value is reported as “not soluble”.

Consider “MGSDKIHHHHHHMPENLIIPSVDLRIGALEEYNRRQKEKAHHRQKGPKPRPCITLSREFGCEGYPVAESLLKLMPEQTGDQWVLVDKDVLDEVARRHHVSREILEALGTKNRILSQVLATFSERWKTDHEYFELLCSHIVSLAEQGNVIIVGLGGAIITHHREHCYDFRIFGSREFKIGSICQRMNLPPDKAADLIEKQQAQIDNFTREFLFEDEANPAIYDLLFNNDRMCPETMARTIADYVAGRIAAGTADKRHV”, for which the “soluble on expression in E. coli” value is listed as “not soluble”.

On to “MKKYIITAFAFITLLTGSVTFTACEDIDDIKELNLDRLLSPTNLTARVRDKVNIELTWDEMDRAQSYVIEVFKEDPDFTGTAISTLESEKATYTVTGLEGETSYSIRVKSVAEGITDSKWVSATRSTDAEQILLEVAEEDLTASEVTLRWPAGQVATEIIITPNDVAAHRVTSDEIAAGAATIKNLKSETTYTATLKNGDKTRGTMVFTTLINLDGALPAYPGDNLATIIATAEANATIVLLPKDDNNSFIYTDESGTAKTLEIELTKDVTIKGLYAENRPTTNIKFVLSGCNNFKIENLNLTASDGGTIITVLDSKGGNITVTNCDVTGFGSLLVENDNTQTGTINTFTVDNCIFHDMASGKRFVDYQKKKSFIAEFTLKNSTFYNCCSGSDFIRFDRHSTKGNIINISNCTLYGIEATSKGLFYVRSNSVGNKDFTANITKCIFANMSNKVFFSQDTKTDNLTFNSNYYFEAPSLLSIPEGGAGKVVDATGVTLDPGFTDAANGNFKVSNQTIIDNEIGDPRWRK”, for which the “soluble on expression in E. coli” value is “soluble”.

For the sequence “ELKPTAPPIFTGRPFVVAWDVPTQDCGPRLKVPLDLNAFDVQASPNEGFVNQNITIFYRDRLGLYPRFDSAGRSVHGGVPQNVSLWAHRKMLQKRVEHYIRTQESAGLAVIDWEDWRPVWVRNWQDKDVYRRLSRQLVASRHPDWPPDRIVKQAQYEFEFAAQQFMLETLRYVKAVRPRHLWGFYLFPDCYNHDYVQNWESYTGRCPDVEVARNDQLAWLWAESTALFPSVYLDETLASSRHGRNFVSFRVQEALRVARTHHANHALPVYVFTRPTYSRRLTGLSEMDLISTIGESAALGAAGVILWGDAGYTTSTETCQYLKDYLTRLLVPYVVNVSWATQYCSRAQCHGHGRCVRRNPSASTFLHLSTNSFRLVPGHAPGEPQLRPVGELSWADIDHLQTHFRCQCYLGWSGEQCQWDHRQAAGG”, the “soluble on expression in E. coli” value is on record as “soluble”.

Regarding “MSLSQSALSELLEAFRAGDGVDLICESVRVALQDLIQLEASERIGAAPYERTDARVSERNGHRPRVLTTKAGDVELRIPKLRKGSFFPVILEPRRRIDQALYAVVMEAYVHGVSTRSVDDLVEAMGVDAGISKSEVSRICAGLDEQVGAFRTRALDHTEFPYVYLDATYLNVRNTTGQVTSMAVVVATGIAADGSREVLGLDVGDSEDETFWRGFLTALKQRGLHGVQLVISDQHAGLVKALRRSFQGAGHQRCRVHFARNLLAHVPKSHGDMVAAVFRTIFAQPDAAAVSHAWDEVRDQLAKSFPKIGPLMDEAKAEVTAFTVFPRAHWQKIWSTNPLERSTRRSSDAPGWSGSEGHHHHHH”, the “soluble on expression in E. coli” value is on record as “soluble”.

In the case of “MGSDKIHHHHHHMLMGSKDKVISILKEKGPISQTELSKLSGLSKSRLSEVLSELEKQGIVKRRKVLGKNLEVSLSQDRFLRLGIIRAAEYPFIIPFIKNLENRGYSVTVKIYENGIDLTRDLVEAKLDLGLSPIITQIIFSTIYRNIRIIGGGAKGGGGIIGKTCNRIASTVMSSMEIWAFSEFKNIEIIPSYSSYEMLDFLEKGIVDGIAIWEPFLSILERKGHKVHRFTPLHCCTLAVRETMDWERIKNIYEESFSWFKSSIDRWVSSYSNLLNIDYNILKEASKNYEFDYYLDLKEFKNSLKNTGIFIPI”, the “soluble on expression in E. coli” value is given as “not soluble”.

As for “MKLIAESGSTRTEWALVEDNHLVQRVFTEGLNPFFQTRREISRSVRLGLPESFFKKKLDQVYYYGAGCSSYEKKNILGASLVAQFKTPIQVESDLLAAARGLFKCEAGIACILGTGSNSCFYDGKIIVKNVKAAGYILGDEGSGAVLGKLFLADLLKGLAPKELANEFHEKFRISVNDVMESVYNLPFPNRFLGTIAYFLGDYMDNEYVYNLLTNNLRSFFNRNVCQYDYINYPIRFVGSLAYAYPDILQEVAQEFGVEIDVIEETPMNGLIEFHSMNIEESMAGDPLEHHHHHH”, the “soluble on expression in E. coli” value is recorded as “not soluble”.

Regarding “MAAEKKVFVIFDHQEQRHDQPWPSYHIEVPRRLDAILERLNTTKLLTDPRIEHIPRREAEESEILAVHTKRYVDDVKSTETMTVEQQESFCTKYEDIYVNSATWHRAKLAAGASIDLMTSVMAAKRPGIAFIRPPGHHAMPDEGCGFCIFNNVAIAAKAAIQNGQKVLIVDYDVHAGNGTQECVEQMGEGNVQLISIHRYENGHFWPNMPQTGIYHNYKNTINLPLNTIGLTDADYHALFTHIILPTIHAFQPDLLLVSSGFDASIGDPEGSMQVTPAGFATMIRMLIDTGIPVAALLEGGYFLDALAADSEWVLRALLGEEIPRIRVEKIHSAIADTIGRVVKRYEGSCPFFKKVQELRGILGCRVAEEDQQEEATDYTGERTVHPPYETRGIYTPFTEQKVAEFKDQLESILASYTTPPDFSAETEAFHSAIAPHSSEINDFYFGVHEDKILLGTSPAVRLFFELLFTAPYDPKHTIKLYGKVKPEDFGKIELDSRSLGEMKNISIFNNLPIFQL”, the “soluble on expression in E. coli” value is “not soluble”.

On to “LRPEDFTTLLQTADFRLRLLEAIAAATRRVYICALYLENEEAGQEMLDALYRAKQRNPQLDVRVMVDWHRAQRGRIGEDQSHCNASWYREEAARRELDIPIYGVPVQTRELFGVLHLKGFVIDDTVFYSGASLNNVYLHKLDKYRFDRYHLIRSPELADAMAGFMAEQFFNDPAVFRLD”, for which the “soluble on expression in E. coli” value was “not soluble”.

Turning to “MSHLKDPTTQYYTGEYPKQKQPTPGIQAKMTPVPDCGEKTYVGSGRLKDRKALVTGGDSGIGRAAAIAYAREGADVAISYLPVEEEDAQDVKKIIEECGRKAVLLPGDLSDEKFARSLVHEAHKALGGLDIMALVAGKQVAIPDIADLTSEQFQKTFAINVFALFWLTQEAIPLLPKGASIITTSSIQAYQPSPHLLDYAATKAAILNYSRGLAKQVAEKGIRVNIVAPGPIWTALQISGGQTQDKIPQFGQQTPMKRAGQPAELAPVYVYLASQESSYVTAEVHGVCGGEHLG”, the “soluble on expression in E. coli” value was “soluble”.

In the case of “MAHHHHHHMNSKASPAALPMRQGRGFQVIVHGVLEGAECVEVGSVFARTQLFFGPDWAFLESNSGYGEDAAADDDDLVEPTYSNNAEVVTQLCDCAKGPVPYFSFTAPFEFALTSTNPFGWPQLVITLHTVEGAGGSSGKGADGNDTQLLGSGESIIGYGRCFIPMKSGYHTKKVPMMQLESTTSKQQLISFLTREKPVLRDLSFLCTGDDQVMLHARPLDGYVKLNFSVMINGMESSGFEV”, the “soluble on expression in E. coli” value is “soluble”.

Take “MSLSEEDLIENPLPENLLDKVIEGDAREVLKKIPDCSIHLMVTSPPYNVGKEYDEDMTLDEYLEFIEEIMKEVYRVLVWGGRACFNVANLGRKPYIPLHAYLIHLFEKIGFLIRGEIIWDKGEAVSGSSTAWGSWMSPVNPVLRDQHEYIIVMSKGDLKRRKPSDREAKSTITREEFLEFTRSVWKFPPESAKRVGHPAPFPEELPYRCIQLYTFKGDVVLDPFAGVGTTCVAAVKTGRHFVGIEINPEYVKKAEERVKDILSKPTLFEDHEGHHHHHH”: the “soluble on expression in E. coli” value is listed as “soluble”.
